Measured values reported in the DeepSol protein solubility set.

Test: soluble on expression in E. coli; label from the status in PepcDB or PDB records
With “MRTILIDWFSDAVREYIFRNEAVHLAVSLVDRALPMFNINKMRFQLVGITSMRIAVKYEEIFPPILSNTRHSFDGAILYWKVRLHRRNAHTILDRIMLCTENELYKKDAECCQTPRAVADRFSFSTLPPI” the “soluble on expression in E. coli” value was “not soluble”.
In the case of “MYKFVLIASLLVALCMAAPPRQESEAERIEREEYEKYQNENAQYSFNSSVDDKINDGQISRNEEREGGTVRGSYSYFDGFVKRRVEYIADKDGYRVLKDEIEDVGNGPSFNPDGIANVEGSMIGKYSIKLDKADDDKHYKDIHALEHHHHHH”, the “soluble on expression in E. coli” value was “not soluble”.
In the case of “MTQLCSDVRVSPLPGTAKVGDTYILFEHHGPWSHDILDGGTFDKETSAALKAMGCGFYLIRRHGREGRIERPKKTAYLVFGSAGIAEKLMVDDVTDLLKLDVSGPGKNRQFGAEQEAQPIILVCTHAKRDACCAIKGRPMAQALTEEFPDSPVWECSHTKGHRFAPSMVLMPWGYTWGQLNKPAAFDMYRYAQRGQLFLPGNRGRGIWPMKGQIAEVAVAQQLAQEGETVTLGQLRVESIEEAQAHVADSHTARTWTVFLREEVVAGIVDSCHKPPKTGTAWVADRVKENGALEHHHHHH”, the “soluble on expression in E. coli” value was “soluble”.
For “MPPKQQGPSKKSEQKRKEKVIEDKTFGLKNKKGNKNQKFVAQVENQVRNNNTRMDLVRQQEAAKKKEKDELLDIANLLKPVEQKVAKDVDPKSLLCVFFKQGLCGKGAKCKFSHDLAVAQKTAKKNLYADSREVEKDEETNENWDSDKLNEVVNKKNKNKHMIDIVSSFMTDIFKFKKLNFKVCKYFLEAVENNKYGWFWECPNGGEKCQYRHCLPEGYVLKKERKAMEQQKEDEISIEELVEKERAALSSKNLTKLTLQTFIAWKKKKLRERKEKEEADLKEKKEKIKSGKHNGMSGRDLFLYDANLVNNDDDEAGDIEMEKEEVDENEKVFEIDANFFKFDGMDDELTDQMSKSSTAVESTAKGMAKMDINEDLFDIDEDVENLDSDED”, the “soluble on expression in E. coli” value was “soluble”.
For “MKWPWWPVCVPLSKRLTLPLPSTANPVVQPSRLALACANRLFEAADNRERFLQALMTPPAYPATVLWCGEPAAALPFAALPPLPWQPPWVSRFVAGSPTGQHPLHAAGAYYCLDSSSVFAAVPLLTLPQEPSLVIDVCAAPGGKSLFAWRSLHPRYLICNETIGKRVGKLIGNLKRCRVHPVGVTSWDSEVLAAEFQGTADVVIVDAPCSGQSLLAKGQKAEGCFHPLTIRHNQRRQKRILAAATTLVRPGGWLLYSTCTFSQDENEDVAAWLMAKFPHLLPQPVPALAAYQSHLAAFPCYRLWPHQGEGAGAFTILWQHQGLEHHHHHH”, the “soluble on expression in E. coli” value was “soluble”.
In the case of “MSLGAMKRLALLVPERANIASLENARQGFLAANGFLRERGCAPRFDVRLVAATPQVRLDHGRITVQADTVLEAVGEVDLCVVPPIQGDPQPALQENGALIDWLAGYYKNGGEVASLCVGAALLAAGGVLDGQRAVVHWAAQSDFGRLFPAVRWVSDRVVLEANGIYTSGGAFSAAHLVLHLVDKYTDRETAIWCAKLFQLDWSREGHHHHHH”, the “soluble on expression in E. coli” value was “soluble”.
For “MDTLKRGKYAKFLHNYLVDNSSQRGYVLNLNAQWGAGKTYFINRWIDSIKDAHPVVYIDAWKQDYSDDPMLTVVSSIIDALEEHLPAGNKKAIALKNKATRFFKAAAPLLMKGLIKKATGMNIDDVEPETEKKEGSDLYNLTGEASAALAKCLIDDHNEKLKTVEHLRSDIKSLIEALDPKKKLKLPAFIFIDELDRCRPSYAVEMLEVIKHFFELENIVFVVATDTEQLQHAVKAVYGEGFDAQTYLGRFFRRRYSLSESSRFEFVKQMVGESYEIKSLEHHHHHH”, the “soluble on expression in E. coli” value was “not soluble”.
For “MTETTENVVITIPDKTSFTFHEAATSPSEGEEFVVGHFRELTVKISGSSTSREIKFYAVDENGEKTALSGTNKTDFQLGSSTLNTNEYWDFDIAGLFKVMFEVVSVTGDVTVKGIVVSLEHHHHHH”, the “soluble on expression in E. coli” value was “soluble”.
For “ETVLADRFERLVELVTMMGDQGELPIAMALANVVPCSQWDELARVLVTLFDSRHLLYQLLWNMFSKEVELADSMQTLFRGNSLASKIMTFCFKVYGATYLQKLLDPLLRIVITSSDWQHVSFEVDPTRLEPSESLEENQRNLLQMTEKFFHAIISSSSEFPPQLRSVCHCLYQVVSQRFPQNSIGAVGSAMFLRFINPAIVSPYEAGILDKKPPPIIERGLKLMSKILQSIANHVLFTKEEHMRPFNDFVKSNFDAARRFFLDIASDCPTSDAVNHSLSFISDGNVLALHRLLWNNQEKIGQYLSSNRDHKAVGRRPFDKMATLLAYLGPPEH”, the “soluble on expression in E. coli” value was “soluble”.
With “MIIYRDLISHDVMFSDIYKIREIADGLCLEVEGKMVSRTEGNIDDSLIGGNASAEGPEGEGTESTVITGVDIVMNHHLQETSFTKEAYKKYIKDYMKSIKGKLEEQRPERVKPFMTGAAEQIKHILANFKNYQFFIGENMNPDGMVALLDYREDGVTPYMIFFKDGLEMEKCLEHHHHHH” the “soluble on expression in E. coli” value was “soluble”.
In the case of “MDSLKEAEIREVFREFDKNGDGRITRQELEVALLQLGEKASNSKIETMIEQADLDGNGCIDIDEFLNVLRRQICDPKEERELRDVFNVFDKNGDGVISIDDLIFVMCQLGEKLTETEAKEMIKQGDLDHDGMIDFQEFVNIIKGQ”, the “soluble on expression in E. coli” value was “soluble”.
For “MSIPITVKTVADLIIGEKGIICGFTDEETSLKLLEMGCLPGCEIELDRKAPLGDPICINVCGYTLSMRLEEASTILLSLEHHHHHH”, the “soluble on expression in E. coli” value was “not soluble”.
For “MGSDKIHHHHHHMINREIAVKVQHVSKTFKLPTEATKSFRTTLVNRLRGIKGFTEQHVLKDINFDVYKGDFFGIVGRNGSGKSTLLKIISQIYVPEKGQVTVDGKMVSFIELGVGFNPELTGRENVYMNGAMLGFTKDEVDDMYNDIVDFAELHHFMNQKLKNYSSGMQVRLAFSVAIKAQGDVLILDEVLAVGDEAFQRKCNDYFMERKDSGKTTILVTHDMGAVKKYCNRAVLIEDGLVKAYGEPFDVANQYSVDNTETAEDAMNAEKISVSDIAKDLKVSLISNPRITPNDTITFEVSYEVLKDDFTYIAFSLTDIDRNIWVYNDNSLDYPTQGIGRKCISYQCQLSQLNDIKLKLEVTVRDKNGQMLLFSTAEQSPQIVIQRNDIDQDDLSALDSASGLYQRNGKWVFH”, the “soluble on expression in E. coli” value was “not soluble”.
In the case of “GSKKKVKELKVLDSKTAQNLSIFLGSFRMPYQEIKNVILEVNEAVLTESMIQNLIKQMPEPEQLKMLSELKEEYDDLAESEQFGVVMGTVPRLRPRLNAILFKLQFSEQVENIKPEIVSVTAACEELRKSENFSSLLELTLLVGNYMNAGSRNAGAFGFNISFLCKLRDTKSADQKMTLLHFLAELCENDHPEVLKFPDELAHVEKASRVSAENLQKSLDQMKKQIADVERDVQNFPAATDEKDKFVEKMTSFVKDAQEQYNKLRMMHSNMETLYKELGDYFVFDPKKLSVEEFFMDLHNFRNMFLQAVKENQKRRETEEKMRRAKLAKEKAEKERLEKQ”, the “soluble on expression in E. coli” value was “soluble”.
With “MNTTVEKQQIITSNTEQWKMYSKLEGKEYQIHISKPKQPAPDSGYPVIYVLDGNAFFQTFHEAVKIQSVRAEKTGVSPAIIVGVGYPIEGAFSGEERCYDFTPSVISKDAPLKPDGKPWPKTGGAHNFFTFIEEELKPQIEKNFEIDKGKQTLFGHSLGGLFALHILFTNLNAFQNYFISSPSIWWNNKSVLEKEENLIIELNNAKFETGVFLTVGSLEREHMVVGANELSERLLQVNHDKLKFKFYEAEGENHASVVPTSLSKGLRFISYV” the “soluble on expression in E. coli” value was “soluble”.
For “TELTLKPGTLTLAQLRAIHAAPVRLQLDASAAPAIDASVACVEQIIAEDRTAYGINTGFGLLASTRIASHDLENLQRSLVLSHAAGIGAPLDDDLVRLIMVLKINSLSRGFSGIRRKVIDALIALVNAEVYPHIPLKGSVGASGDLAPLAHMSLVLLGEGKARYKGQWLSATEALAVAGLEPLTLAAKEGLALLNGTQASTAYALRGLFYAEDLYAAAIACGGLSVEAVLGSRSPFDARIHEARGQRGQIDTAACFRDLLGDSSEVSLSHKNADKVQDPYSLRCQPQVMGACLTQLRQAAEVLGIEANAVSDNPLVFAAEGDVISGGNFHAEPVAMAADNLALAIAEIGSLSERRISLMMDKHMSQLPPFLVENGGVNSGFMIAQVTAAALASENKALSHPHSVDSLPTSANQEDHVSMAPAAGKRLWEMAENTRGVLAIEWLGACQGLDLRKGLKTSAKLEKARQALRSEVAHYDRDRFFAPDIEKAVELLAKGSLTGLLPAGVLPSL”, the “soluble on expression in E. coli” value was “soluble”.
